How the values were obtained:
Experiment in all cases: cell_activity
[1] = tested on: ZFN SBS#25191 (HLA-A3) (synthetic construct); settings: HEK293, Surveyor assay; ZFN identity (pair 25191/25190) inferred from Table 1
[2] = tested on: ZFN SBS#25190 (HLA-A3) (synthetic construct); settings: HEK293, Surveyor assay; ZFN identity (pair 25191/25190) inferred from Table 1
[3] = tested on: ZFN SBS#18889 (ZFN-L, HLA-A2) (synthetic construct); settings: pair with 18881, EL/KK FokI, primary T cells, 2.5 ug each mRNA; 19% at 37C and up to 57% with 30C cold shock without EL/KK; Table 2 prints AGG where listing …
[4] = tested on: ZFN SBS#18881 (ZFN-R, HLA-A2) (synthetic construct); settings: pair with 18889, EL/KK FokI, primary T cells, 2.5 ug each mRNA; 19% at 37C and up to 57% with 30C cold shock without EL/KK

## ATGGAGCCGCGGGCGCCGTGGATAGAGC (double strand) [HLA-A3 target site of 25191]
[1]
  activity (% modified HLA-A3 alleles): 10

## CTGGCTCGCGGCGTCGCTGTCGAACCGC (double strand) [HLA-A3 target site of 25190]
[2]
  activity (% modified HLA-A3 alleles): 10

## GTATGGCTGCGACGTGGGGTCGGACGGG (double strand) [HLA-A2 target site of 18889]
[3]
  activity (% HLA-A2 negative cells): 52

## TTATCTGGATGGTGTGAGAACCTGGCCC (double strand) [HLA-A2 target site of 18881]
[4]
  activity (% HLA-A2 negative cells): 52
